Measurements from patent US20080279864A1.
Read-outs that look alike come from different tables or passages of the source. Blank lines part the entries; values can stand above or below the substance they belong to.

Legend:
[1] = molecular target: N-type (CaV2.2) Ca2+ channel (α1B with β2a and α2δ) in HEK293 cells (human; rat) (UniProt Q00975); test: cell-based or functional assay
I-IIC-YFP (rabbit) = I-IIC-YFP (rabbit) (UniProt P15381); test: FRET two-hybrid, relative dissociation constant against the NTB-CFP/I-IIB-YFP pair
Chain of I-IIC-YFP (rabbit) (P15381 436-554): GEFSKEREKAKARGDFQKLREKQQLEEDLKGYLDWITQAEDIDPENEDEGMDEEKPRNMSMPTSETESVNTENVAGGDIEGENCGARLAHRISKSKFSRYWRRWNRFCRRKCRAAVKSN

I-IIB-YFP (human) [2] = molecular target: I-IIB-YFP (human) (UniProt Q00975); test: as above
Chain of I-IIB-YFP (human) (Q00975 357-482): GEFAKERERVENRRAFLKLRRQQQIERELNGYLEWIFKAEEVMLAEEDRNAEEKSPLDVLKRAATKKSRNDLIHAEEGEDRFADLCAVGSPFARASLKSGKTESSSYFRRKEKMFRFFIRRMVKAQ

I-IIB-YFP (human) [3] = molecular target: I-IIB-YFP (human) (UniProt Q00975); test: as above; remark: listed apart in the source
I-IIC-CFP (rabbit) = I-IIC-CFP (rabbit) (UniProt P15381); test: as above
Chain of I-IIC-CFP (rabbit) (P15381 436-554): as the sequence (P15381 436-554) above

[4] = molecular target: I-IIB(357-482)-pGBKT7 (I-II loop of α1B fused to the GAL4 binding domain) (human); test: yeast two-hybrid auto-activation control (empty pGADT7), filter lift β-galactosidase assay, % of colonies turning blue, mean ± SEM
[5] = molecular target: NTB(56-95)-pGBKT7 (human); test: as above
NTB(1-44)-pGBKT7 (human) [6] = test: as above
[7] = molecular target: I-IIB(357-482)-pGBKT7 (I-II loop of α1B fused to the GAL4 binding domain) (human); test: yeast two-hybrid auto-activation control (empty pGADT7), % of colonies surviving on high stringency plates, mean ± SEM
[8] = molecular target: NTB(56-95)-pGBKT7 (human); test: as above
[9] = molecular target: I-IIC(436-554)-pGBKT7 (I-II loop of α1C fused to the GAL4 binding domain) (rabbit); test: as above
NTB(1-44)-pGBKT7 (human) [10] = test: as above

Chain of N-type (CaV2.2) Ca2+ channel (α1B with β2a and α2δ) in HEK293 cells (human; rat) (Q00975 whole entry, stated change not applied, chain 1 of 3, other chains not shown): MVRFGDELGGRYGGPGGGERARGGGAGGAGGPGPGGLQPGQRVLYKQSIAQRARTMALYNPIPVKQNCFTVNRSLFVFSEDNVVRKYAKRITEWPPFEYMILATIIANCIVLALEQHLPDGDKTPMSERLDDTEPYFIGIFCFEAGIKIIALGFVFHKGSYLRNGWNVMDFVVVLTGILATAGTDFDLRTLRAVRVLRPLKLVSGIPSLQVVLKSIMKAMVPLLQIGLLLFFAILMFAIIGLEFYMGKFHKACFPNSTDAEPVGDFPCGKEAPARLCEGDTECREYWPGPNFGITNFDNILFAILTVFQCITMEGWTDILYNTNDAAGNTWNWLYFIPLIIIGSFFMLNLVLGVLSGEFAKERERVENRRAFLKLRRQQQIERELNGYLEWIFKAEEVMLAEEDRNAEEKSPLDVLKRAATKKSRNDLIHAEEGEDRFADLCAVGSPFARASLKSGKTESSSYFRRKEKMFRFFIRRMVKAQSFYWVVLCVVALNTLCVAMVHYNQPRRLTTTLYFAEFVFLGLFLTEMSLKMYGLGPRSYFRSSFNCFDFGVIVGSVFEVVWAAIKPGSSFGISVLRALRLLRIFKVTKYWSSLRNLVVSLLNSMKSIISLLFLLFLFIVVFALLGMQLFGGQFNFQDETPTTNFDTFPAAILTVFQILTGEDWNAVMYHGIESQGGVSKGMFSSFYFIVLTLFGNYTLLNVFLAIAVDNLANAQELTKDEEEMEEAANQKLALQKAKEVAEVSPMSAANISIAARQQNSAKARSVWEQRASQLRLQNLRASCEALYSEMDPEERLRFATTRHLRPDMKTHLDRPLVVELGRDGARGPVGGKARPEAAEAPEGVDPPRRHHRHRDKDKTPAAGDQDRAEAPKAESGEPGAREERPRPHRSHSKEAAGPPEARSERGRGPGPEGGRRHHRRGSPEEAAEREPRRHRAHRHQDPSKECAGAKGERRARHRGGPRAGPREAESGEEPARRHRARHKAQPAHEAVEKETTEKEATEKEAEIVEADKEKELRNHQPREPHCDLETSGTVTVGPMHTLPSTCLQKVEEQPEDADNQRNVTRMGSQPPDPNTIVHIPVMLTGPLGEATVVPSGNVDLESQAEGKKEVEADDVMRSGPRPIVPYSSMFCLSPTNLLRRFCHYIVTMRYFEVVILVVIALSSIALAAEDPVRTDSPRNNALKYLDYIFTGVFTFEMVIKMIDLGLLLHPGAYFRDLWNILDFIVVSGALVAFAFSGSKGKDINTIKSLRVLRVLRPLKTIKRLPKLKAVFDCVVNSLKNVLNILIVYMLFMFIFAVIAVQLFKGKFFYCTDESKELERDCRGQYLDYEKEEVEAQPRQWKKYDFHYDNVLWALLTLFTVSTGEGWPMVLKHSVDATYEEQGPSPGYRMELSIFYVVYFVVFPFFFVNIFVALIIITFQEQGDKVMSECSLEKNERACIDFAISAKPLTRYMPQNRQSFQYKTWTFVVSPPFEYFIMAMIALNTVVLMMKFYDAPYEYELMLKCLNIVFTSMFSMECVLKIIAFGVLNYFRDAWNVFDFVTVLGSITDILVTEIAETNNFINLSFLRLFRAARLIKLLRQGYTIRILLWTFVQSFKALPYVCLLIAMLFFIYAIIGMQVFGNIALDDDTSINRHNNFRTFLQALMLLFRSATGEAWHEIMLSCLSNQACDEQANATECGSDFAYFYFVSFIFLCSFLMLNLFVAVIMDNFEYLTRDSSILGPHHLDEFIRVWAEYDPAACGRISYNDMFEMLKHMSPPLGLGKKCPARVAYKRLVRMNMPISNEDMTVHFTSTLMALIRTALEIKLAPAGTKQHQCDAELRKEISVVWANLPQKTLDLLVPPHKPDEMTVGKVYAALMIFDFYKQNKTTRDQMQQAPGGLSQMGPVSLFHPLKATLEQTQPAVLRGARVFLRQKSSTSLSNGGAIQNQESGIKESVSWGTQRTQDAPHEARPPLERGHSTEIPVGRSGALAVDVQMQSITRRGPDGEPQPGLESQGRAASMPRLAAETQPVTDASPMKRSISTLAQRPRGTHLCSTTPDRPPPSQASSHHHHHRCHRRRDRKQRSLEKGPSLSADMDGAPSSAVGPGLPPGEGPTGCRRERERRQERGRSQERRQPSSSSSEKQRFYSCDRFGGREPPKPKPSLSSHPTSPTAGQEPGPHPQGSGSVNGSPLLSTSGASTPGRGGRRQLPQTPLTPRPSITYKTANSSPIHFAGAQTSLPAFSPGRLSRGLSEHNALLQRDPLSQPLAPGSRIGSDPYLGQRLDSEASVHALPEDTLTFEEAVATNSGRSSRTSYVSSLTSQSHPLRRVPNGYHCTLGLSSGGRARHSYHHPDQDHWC
Chain of N-type (CaV2.2) Ca2+ channel (α1B with β2a and α2δ) in HEK293 cells (human; rat) (P54290 25-1091, stated change not applied, chain 3 of 3, other chains not shown, further chain): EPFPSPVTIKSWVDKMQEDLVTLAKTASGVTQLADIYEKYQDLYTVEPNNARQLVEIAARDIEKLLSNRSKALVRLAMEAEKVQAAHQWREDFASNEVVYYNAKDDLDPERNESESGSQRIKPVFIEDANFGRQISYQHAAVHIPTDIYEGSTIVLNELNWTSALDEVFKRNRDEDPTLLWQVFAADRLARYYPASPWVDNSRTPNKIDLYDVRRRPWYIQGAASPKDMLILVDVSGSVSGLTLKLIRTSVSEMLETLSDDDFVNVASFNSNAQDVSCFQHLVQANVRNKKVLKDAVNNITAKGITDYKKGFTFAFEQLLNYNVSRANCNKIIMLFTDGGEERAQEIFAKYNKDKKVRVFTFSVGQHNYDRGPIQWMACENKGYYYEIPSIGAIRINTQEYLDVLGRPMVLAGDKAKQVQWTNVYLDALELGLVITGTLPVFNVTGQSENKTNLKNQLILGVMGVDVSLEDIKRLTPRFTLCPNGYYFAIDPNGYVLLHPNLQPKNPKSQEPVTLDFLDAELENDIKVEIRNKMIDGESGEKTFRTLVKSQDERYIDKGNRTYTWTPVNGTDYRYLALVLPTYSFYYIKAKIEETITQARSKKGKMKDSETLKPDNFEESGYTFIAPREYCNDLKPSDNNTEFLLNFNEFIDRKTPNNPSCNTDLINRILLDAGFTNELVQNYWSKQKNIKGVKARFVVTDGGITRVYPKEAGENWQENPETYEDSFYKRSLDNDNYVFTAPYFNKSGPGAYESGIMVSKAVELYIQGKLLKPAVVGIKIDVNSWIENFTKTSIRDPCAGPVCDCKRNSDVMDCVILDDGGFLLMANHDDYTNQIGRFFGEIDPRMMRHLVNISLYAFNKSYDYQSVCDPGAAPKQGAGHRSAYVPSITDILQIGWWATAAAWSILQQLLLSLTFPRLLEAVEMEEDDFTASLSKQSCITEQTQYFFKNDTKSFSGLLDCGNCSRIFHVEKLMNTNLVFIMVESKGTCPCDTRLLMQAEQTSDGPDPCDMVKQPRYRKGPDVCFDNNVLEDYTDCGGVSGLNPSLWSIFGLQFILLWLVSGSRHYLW

W(∞), fraction of channels residing in the willing configuration at steady state, 0 mV (compound-state analysis) [1]: 0.6 | τ, time-constant with which the steady state is achieved, 0 mV (compound-state analysis) [1]: 60 ms
Substance: Gβγ (G protein β1 and γ2 subunits coexpressed) (from UniProt P62871 2-340; P63212 2-68)

Kd,EFF relative to NTB/I-IIB (I-IIC-YFP (rabbit)): > 10 fold
Substance: NTB-CFP (from UniProt Q00975 1-95)

Kd,EFF relative to NTB/I-IIB (I-IIB-YFP (human) [2]): > 10 fold | Kd,EFF relative to NTB/I-IIB (I-IIB-YFP (human) [3]): 8 fold
Substance: NTC-CFP (from UniProt P15381 1-53)

Kd,EFF relative to NTB/I-IIB (I-IIC-CFP (rabbit)): > 10 fold
Substance: NTC-YFP (from UniProt P15381 1-53)

Filter Lift Assay (%) [4]: 9.18% | Filter Lift Assay (%) [5]: 32.2% | Filter Lift Assay (%) (NTB(1-44)-pGBKT7 (human) [6]): 47.9%
Substance: pGADT7 (empty vector; the isolated GAL4 activating domain itself) (from UniProt P04386 768-881)
High Stringency (%) [7]: 18.7% | High Stringency (%) [8]: 2.11% | High Stringency (%) [9]: 8.44% | High Stringency (%) (NTB(1-44)-pGBKT7 (human) [10]): 0.98%
